Source: patent US11021755B2, “Compositions and methods for identifying anti cancer, anti-metastatic and anti-stress agents” (THE REGENTS OF THE UNIVERSITY OF CALIFORNIA, priority 2015, dated 2021)
Peptide text beside a SMILES is read from it. * marks the point of attachment. Cbz = O=C(OCc1ccccc1)*

Assays:
[1] = tested on: Slug protein and pY416 SFK in MCF10A cells; test: Immunoblots of MCF10A cells stimulated with TGF-b2 and treated with inhibitors or antibody; assay type: cell-based, human; details: for Slug protein levels: 10 mM MG132, 5 hr prior to lysis
Method: FIGS. 21F-G illustrate Immunoblots of MCF10A cells stimulated with TGF-b2 or vehicle control and probed for the indicated proteins. FIG. 21F: Cells were transfected with control (Ctrl) or b3 siRNA and additionally treated with vehicle or proteasome inhibitor (MG132) for 5 hr prior to lysis. FIG. 21G: Cells were treated with 100 nM Src inhibitor (dasatinib) for the indicated length of time prior to lysis. FIG. 21F and FIG. 21G: Data shown are representative of three independent experiments.
Indeed, Slug protein levels are highly regulated through degradation by the proteasome (Kim et al. 2012; Wu et al., 2012). […] Thus, it appears that TGF-β2-stimulated expression of a αvβ3 mediates SFK activation resulting in enhanced Slug protein stability.
(§1) For experiments with MCF10A and HMECs, TGF-b2 stimulations were performed with 5 ng/ml TGF-b2 (PeproTech) or 0.1% BSA/PBS (vehicle) for 48 hr prior to lysis. In some experiments, […] of the anti-αvβ3 function-blocking antibody LM609 (Millipore) was added to cells at the same time as TGF-b2 or vehicle addition. For the proteasome inhibitor experiments, 10 mM MG132 (Sigma-Aldrich) or DMSO (vehicle) was added to transfected MCF10A cells 5 hr prior to lysis. Treatment of MCF10A cells with the SFK inhibitor dasatinib (ChemieTek) or DMSO (vehicle) was performed with 100 nM dasatinib for the indicated times prior to harvesting lysates.

[2] = tested on: ITGB3 promoter in HCC827 cells; details: resuming erlotinib treatment after erlotinib holiday
[3] = tested on: MaSC/basal and luminal colonies from virgin mammary cells; test: Mammary colony formation on irradiated MEFs with growth factors; assay type: cell-based, mouse; details: for total colony number: virgin mammary cells on irradiated MEFs
Method: This effect was reduced in mammary cells from β3KO mice (FIG. 20H), similar to our results from pregnant b3KO mice (FIG. 19C).
For colony formation on irradiated MEFs, 100,000 MEFs were seeded into 6-well dishes for 48 hr prior to adding 40,000 cells from digested mammary glands and grown in complete Dulbecco's modified Eagle's medium (DMEM). Colonies formed over 5-6 days before fixing and staining with either 0.1% crystal violet/20% methanol/PBS or 2% paraformaldehyde/PBS for immunofluorescent staining and counting colonies. For Matrigel colonies, 5,000 fluorescence-activated cell sorting (FACS) mammary gland cells were suspended in […] growth factor-reduced Matrigel (BD PharMingen) and grown 14 days in serum-free mammary epithelial cell medium-basal medium (Cambrex) supplemented with B27 supplement, 20 ng/ml epidermal growth factor, 20 ng/ml […] fibroblast growth factor, […], 100 U/ml penicillin, and […] streptomycin. Total colonies per well were counted from each of the four replicates per experiment.
(§2) Cells from digested mammary glands were seeded at 40,000 cells per well onto MEFs (for colony-formation assays) or 8-well chamber slides (Lab-Tek) coated with 2% Matrigel/DMEM. At the time of seeding, cells were suspended in complete DMEM supplemented with vehicle (0.1% BSA/PBS), RANKL (50 ng/ml), TGF-b1 (5 ng/ml), or TGF-b2 (5 ng/ml) (PeproTech). Cells were fixed with 2% paraformaldehyde/PBS after 48 hr (chamber slides) or 5 days (colonies) for immunofluorescent staining.

[4] = tested on: β3 expression in MaSCs/basal cells; test: β3 expression in K14+SMA+ cells from virgin WT mammary cells stimulated with growth factors (immunofluorescence); assay type: cell-based, mouse; details: cells from virgin WT mice; relative to vehicle-treated cells; TGF-b2 5 ng/ml, TGF-b1 5 ng/ml, RANKL 50 ng/ml, 48 hr
Excerpt: (§3) To examine the ability of these factors to increase β3 expression, we stimulated cells from virgin WT mice and measured β3 expression in MaSCs/basal cells, defined by expression of K14 and SMA.
FIG. 20A illustrates representative immunofluorescent images of β3 expression in K14+SMA+ cells (arrows) from pooled virgin WT mammary cells stimulated with the indicated growth factors. Nuclei are stained blue in all panels. Scale bars, […]. Data shown are representative of three independent experiments.
as §2

β3 promoter = β3 promoter luciferase reporter in MCF10A cells; assay type: cell-based, human; details: reporter with proximal 1,300 bp of the β3 promoter
Excerpt: FIG. 20E graphically illustrates a Histogram displaying the relative luciferase activity in MCF10A cells transfected with an empty vector (Ctrl) or a luciferase reporter plasmid containing the proximal region of the β3 promoter (β3 prom-Luc) and stimulated with vehicle or TGF-β2. n=3 independent experiments. p=0.043.

[5] = tested on: β3 mRNA in CD29hi MaSCs/basal cells and CD29lo luminal cells; test: qPCR of β3 mRNA in vehicle versus TGF-β2-stimulated CD29hi and CD29lo cells; assay type: cell-based, mouse
Excerpt: as §3
FIG. 20B and FIG. 20C graphically illustrate qPCR analysis comparing the relative levels of β3 mRNA in vehicle versus TGF-β2-stimulated CD29hi (FIG. 20B) and CD29lo (FIG. 20C) cells from WT virgin mice. n=2 independent experiments (pooled samples).
For FIG. 20B, FIG. 20C, and FIG. 20F: each sample was run in triplicate, and 18S rRNA (FIG. 20B and FIG. 20C) or b-actin (FIG. 20F) was used as loading controls.

[6] = tested on: β3 expression in human mammary epithelial cells (HMECs), MCF10As; test: Immunoblot for β3 in MCF10As and HMECs stimulated with TGF-b2; assay type: cell-based; details: HMECs including MCF10As; 5 ng/ml TGF-b2, 48 hr
Method: FIG. 20D illustrates an image of an Immunoblot for β3 and b-actin (loading control) in MCF10As and HMECs stimulated with TGF-b2 or vehicle control. Data shown are representative of three independent experiments.
as §1

[7] = tested on: nuclear Slug in K14+SMA+ MaSCs/basal cells; test: Slug expression in K14+SMA+ mammary cells stimulated with TGF-β2; assay type: cell-based, mouse
Excerpt: Slug was recently characterized as a determinant of the MaSC fate in the virgin mammary gland (Guo et al., 2012) and is expressed during early to midpregnancy but is negatively regulated by Elf5 during late stage pregnancy/lactation, allowing for alveolar maturation (Chakrabarti et al., 2012). Therefore, we considered whether β3 was required for TGF-β2-mediated Slug expression in MaSCs/basal cells.
To determine the potential mechanism by which αvβ3 regulates Slug, we considered whether αvβ3 signaling may be required by assessing whether the b3DC mutant affects Slug expression. […] The β3DC mutant has previously been characterized as defective in recruiting and activating Src family kinases (SFKs) (Ablooglu et al., 2009; Arias-Salgado et al., 2003; Desgrosellier et al., 2009).
FIG. 21B graphically illustrates quantitation of the percentage of Slug+K14+SMA+ cells. p=0.0439 (vehicle versus TGF-b2 inWT cells) and p=0.0342 (WT versus b3KO cells stimulated with TGF-b2). For FIG. 21A and FIG. 21B: WT, n=3, b3KO, n=3.
FIG. 21E graphically illustrates quantitation of the percentage of Slug-expressing K14+SMA+ cells from virgin WT and b3DC mammary cells stimulated with vehicle or TGF-b2. WT, n=2, b3DC, n=2. p=0.029 (vehicle versus TGF-b2 in WT cells) and p=0.032 (WT versus b3DC cells stimulated with TGF-b2).
as §2

[8] = virgin WT mammary cells on irradiated MEFs, compared to vehicle

Molecule: CC(C)C[C@@H](C=O)NC(=O)[C@H](CC(C)C)NC(=O)[C@H](CC(C)C)NC(=O)OCc1ccccc1 [MG132] (Cbz-Leu-Leu-Leu-aldehyde)
- Slug protein levels ([1]; b3 knockdown MCF10A cells): restore Slug protein levels to normal
- Slug protein levels ([1]; control MCF10A cells): little effect

Molecule: C#Cc1cccc(Nc2ncnc3cc(OCCOC)c(OCCOC)cc23)c1 [erlotinib]
- expression of β3 and stem cell genes OCT4 and Nanog [2]: re-expression

Molecule: TGF-β1: transforming growth factor β (TGF-β) family member (PeproTech)
- total colony number [3]: severe growth inhibitory effect
- β3 expression in MaSCs/basal cells (K14 and SMA expressing) [4]: not

B1: TGF-β2: Transforming growth factor β2, growth factor released during pregnancy (PeproTech) (protein, UniProt P61812 303-414, looked up)
Transforming growth factor …: ALDAAYCFRNVQDNCCLRPLYIDFKRDLGWKWIHEPKGYNANFCAGACPYLWSSDTQHSRVLSLYNTINPEASASPCCVSQDLEPLTILYYIGKTPKIEQLSNMIVKSCKCS
- frequency of bipotent, MaSC-like colonies [3, 8]: increased
- luminal colonies [3, 8]: reciprocal decrease
- total colony number [3]: did not affect
- β3 promoter activity (relative luciferase activity) (β3 promoter): directly activating the β3 promoter
- β3 expression in MaSCs/basal cells (K14 and SMA expressing) [4]: stimulated β3 expression
- expression of EMT markers such as Slug, E-cadherin, and Vimentin ([1]; MCF10A cells, TGF-β2 stimulation): drives changes
- β3 mRNA expression ([5]; CD29hi MaSCs/basal cells from WT virgin mice): drive β3 mRNA expression
- β3 mRNA expression ([5]; CD29lo luminal cells from the same mice): little effect
- β3 expression (immunoblot) [6]: potent driver
- Slug expression in K14+SMA+ cells ([7]; cells from β3DC knockin mice): no increase
- nuclear Slug expression in K14+SMA+ cells ([7]; virgin WT mammary cells, compared to vehicle control): induced nuclear Slug expression
- Slug expression in K14+SMA+ cells ([7]; β3KO cells): failed to increase Slug

B2: RANKL: receptor activator of nuclear factor kB ligand (protein, UniProt O14788 140-317, looked up)
Tumor necrosis factor ligand …: IRAEKAMVDGSWLDLAKRSKLEAQPFAHLTINATDIPSGSHKVSLSSWYHDRGWAKISNMTFSNGKLIVNQDGFYYLYANICFRHHETSGDLATEYLQLMVYVTKTSIKIPSSHTLMKGGSTKYWSGNSEFHFYSINVGGFFKLRSGEEISIEVSNPSLLDPDQDATYFGAFKVRDID
- total colony number [3]: potent driver of colony formation
- β3 expression in MaSCs/basal cells (K14 and SMA expressing) [4]: not
